Common to all, as to experiment: split reporter (BiFC, NanoBiT); mCherry BiFC (Nm and Cm fusions) in Sf9 cells transfected with a pair of plasmids (2 ug/well each); 36 h p.t.; epifluorescence microscopy; percentage of fluorescent cells in each field
Assay [1] concerns the target Hse1 (BiFC fusion) (S. frugiperda).
Assay [2] deals with Vps25 (BiFC fusion) (S. frugiperda).
In assay [3] the target is Vps27 (BiFC fusion) (S. frugiperda).
Assay [4] deals with Vps36 (BiFC fusion) (S. frugiperda).

Substance Chm7 (BiFC fusion) (natural protein) displayed a percentage of fluorescent cells in BiFC in assay [1] of 5%.
For Tsg101 (BiFC fusion) (natural protein), the percentage of fluorescent cells in BiFC in assay [2] and in assay [3] was 5% in each case.
Vps2B (BiFC fusion) (natural protein) yielded a percentage of fluorescent cells in BiFC in assay [1] of 5%.
In assay [4], Vps28 (BiFC fusion) (natural protein) showed a percentage of fluorescent cells in BiFC of 5%.

(Values after publication PMC11998489.)
